From the supplement of paper PMC10065799, “High-throughput profiling of sequence recognition by tyrosine kinases and SH2 domains using bacterial peptide display” (eLife, 2023)

Legend:
SHP2-C SH2 = assay: SH2 binding enrichment of the phosphorylated peptide, bacterial display (enrichment ratio); higher = better substrate or ligand; peptides without Tyr show the background
Grb2 SH2 = Grb2 SH2 (UniProt P62993); assay: as above
c-Src SH2 = assay: as above
Hck = Hck (UniProt P08631); assay: phosphorylation enrichment, bacterial display (enrichment ratio); higher = better substrate or ligand; peptides without Tyr show the background
Sequence of Hck (P08631 whole entry, looked up): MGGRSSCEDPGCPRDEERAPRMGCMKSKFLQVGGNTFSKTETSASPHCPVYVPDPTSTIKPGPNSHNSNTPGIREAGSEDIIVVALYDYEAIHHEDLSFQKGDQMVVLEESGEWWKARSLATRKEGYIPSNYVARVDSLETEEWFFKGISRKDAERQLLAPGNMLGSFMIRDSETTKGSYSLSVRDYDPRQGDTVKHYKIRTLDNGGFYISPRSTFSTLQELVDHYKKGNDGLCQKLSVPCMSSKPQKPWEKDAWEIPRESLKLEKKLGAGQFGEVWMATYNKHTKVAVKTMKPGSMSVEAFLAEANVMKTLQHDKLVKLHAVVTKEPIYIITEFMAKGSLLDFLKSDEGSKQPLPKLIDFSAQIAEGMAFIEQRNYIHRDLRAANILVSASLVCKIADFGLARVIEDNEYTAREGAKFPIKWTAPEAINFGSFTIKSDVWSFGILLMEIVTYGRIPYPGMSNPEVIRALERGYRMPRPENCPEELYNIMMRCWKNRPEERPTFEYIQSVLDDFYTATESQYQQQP

Fer (mouse) = assay: as above
FGFR1 = FGFR1 (UniProt P11362); assay: as above
EPHB1 = EPHB1 (UniProt P54762); assay: as above
c-Src = assay: as above
Jak2 = Jak2 (UniProt O60674); assay: as above
Sequence of Jak2 (O60674 whole entry, looked up): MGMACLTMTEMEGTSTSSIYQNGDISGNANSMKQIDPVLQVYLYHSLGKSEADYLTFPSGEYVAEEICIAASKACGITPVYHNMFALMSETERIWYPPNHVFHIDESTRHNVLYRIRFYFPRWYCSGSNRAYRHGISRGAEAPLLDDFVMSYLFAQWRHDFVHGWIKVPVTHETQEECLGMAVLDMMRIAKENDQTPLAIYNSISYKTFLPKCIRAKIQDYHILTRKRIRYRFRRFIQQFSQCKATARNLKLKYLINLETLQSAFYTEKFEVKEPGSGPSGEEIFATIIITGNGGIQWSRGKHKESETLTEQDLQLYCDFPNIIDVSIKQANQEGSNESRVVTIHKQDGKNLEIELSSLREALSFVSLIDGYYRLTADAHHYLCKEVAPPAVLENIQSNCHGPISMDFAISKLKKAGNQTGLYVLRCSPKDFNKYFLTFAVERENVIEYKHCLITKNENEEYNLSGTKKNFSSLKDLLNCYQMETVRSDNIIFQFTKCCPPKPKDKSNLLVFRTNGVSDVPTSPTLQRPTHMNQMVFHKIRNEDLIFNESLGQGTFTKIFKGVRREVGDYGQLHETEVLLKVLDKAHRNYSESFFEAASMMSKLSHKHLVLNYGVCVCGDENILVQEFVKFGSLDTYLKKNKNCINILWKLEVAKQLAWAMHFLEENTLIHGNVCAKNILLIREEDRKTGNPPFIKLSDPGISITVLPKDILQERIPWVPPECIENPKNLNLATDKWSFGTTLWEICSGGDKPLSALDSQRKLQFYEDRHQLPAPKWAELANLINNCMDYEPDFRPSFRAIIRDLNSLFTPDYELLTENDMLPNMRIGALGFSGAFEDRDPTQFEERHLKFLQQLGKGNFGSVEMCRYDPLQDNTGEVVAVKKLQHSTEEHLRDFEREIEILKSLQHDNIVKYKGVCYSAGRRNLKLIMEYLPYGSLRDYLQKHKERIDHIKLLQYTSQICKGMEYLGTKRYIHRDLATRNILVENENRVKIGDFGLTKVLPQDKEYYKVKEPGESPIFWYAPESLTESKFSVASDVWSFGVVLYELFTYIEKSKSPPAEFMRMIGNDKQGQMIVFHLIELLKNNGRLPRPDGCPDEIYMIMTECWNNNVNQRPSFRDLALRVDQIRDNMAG

EPHB2 = EPHB2 (UniProt P29323); assay: as above
Sequence of EPHB2 (P29323 whole entry, looked up): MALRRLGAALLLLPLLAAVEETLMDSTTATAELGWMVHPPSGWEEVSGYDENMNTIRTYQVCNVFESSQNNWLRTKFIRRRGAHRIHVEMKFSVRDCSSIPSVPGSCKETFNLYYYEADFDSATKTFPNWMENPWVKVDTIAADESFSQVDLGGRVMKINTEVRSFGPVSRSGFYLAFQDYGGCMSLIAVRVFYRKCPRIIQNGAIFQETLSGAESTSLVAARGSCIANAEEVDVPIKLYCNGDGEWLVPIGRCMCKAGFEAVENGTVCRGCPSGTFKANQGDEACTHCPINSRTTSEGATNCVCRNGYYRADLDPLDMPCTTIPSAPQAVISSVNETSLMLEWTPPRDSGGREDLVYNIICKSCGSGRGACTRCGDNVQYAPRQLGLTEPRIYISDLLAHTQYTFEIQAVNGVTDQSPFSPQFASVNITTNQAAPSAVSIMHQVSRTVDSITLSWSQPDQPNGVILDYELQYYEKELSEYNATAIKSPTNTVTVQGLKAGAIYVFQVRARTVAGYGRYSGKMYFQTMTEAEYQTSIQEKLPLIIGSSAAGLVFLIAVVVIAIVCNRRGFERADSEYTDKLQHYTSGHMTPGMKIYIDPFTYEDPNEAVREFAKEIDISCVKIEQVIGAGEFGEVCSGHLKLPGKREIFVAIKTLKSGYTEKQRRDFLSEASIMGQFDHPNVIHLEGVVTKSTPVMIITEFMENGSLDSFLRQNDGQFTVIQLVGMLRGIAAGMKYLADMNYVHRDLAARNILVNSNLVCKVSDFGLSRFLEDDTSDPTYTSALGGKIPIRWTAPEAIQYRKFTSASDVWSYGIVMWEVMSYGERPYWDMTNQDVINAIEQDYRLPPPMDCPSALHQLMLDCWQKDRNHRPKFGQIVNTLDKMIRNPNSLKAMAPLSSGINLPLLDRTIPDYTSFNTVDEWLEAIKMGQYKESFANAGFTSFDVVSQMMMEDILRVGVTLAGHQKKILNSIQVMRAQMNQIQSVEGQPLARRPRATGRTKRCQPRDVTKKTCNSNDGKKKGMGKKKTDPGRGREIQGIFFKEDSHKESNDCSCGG

c-Abl (mouse) = assay: as above
FGFR3 = FGFR3 (UniProt P22607); assay: as above
Sequence of FGFR3 (P22607 whole entry, looked up): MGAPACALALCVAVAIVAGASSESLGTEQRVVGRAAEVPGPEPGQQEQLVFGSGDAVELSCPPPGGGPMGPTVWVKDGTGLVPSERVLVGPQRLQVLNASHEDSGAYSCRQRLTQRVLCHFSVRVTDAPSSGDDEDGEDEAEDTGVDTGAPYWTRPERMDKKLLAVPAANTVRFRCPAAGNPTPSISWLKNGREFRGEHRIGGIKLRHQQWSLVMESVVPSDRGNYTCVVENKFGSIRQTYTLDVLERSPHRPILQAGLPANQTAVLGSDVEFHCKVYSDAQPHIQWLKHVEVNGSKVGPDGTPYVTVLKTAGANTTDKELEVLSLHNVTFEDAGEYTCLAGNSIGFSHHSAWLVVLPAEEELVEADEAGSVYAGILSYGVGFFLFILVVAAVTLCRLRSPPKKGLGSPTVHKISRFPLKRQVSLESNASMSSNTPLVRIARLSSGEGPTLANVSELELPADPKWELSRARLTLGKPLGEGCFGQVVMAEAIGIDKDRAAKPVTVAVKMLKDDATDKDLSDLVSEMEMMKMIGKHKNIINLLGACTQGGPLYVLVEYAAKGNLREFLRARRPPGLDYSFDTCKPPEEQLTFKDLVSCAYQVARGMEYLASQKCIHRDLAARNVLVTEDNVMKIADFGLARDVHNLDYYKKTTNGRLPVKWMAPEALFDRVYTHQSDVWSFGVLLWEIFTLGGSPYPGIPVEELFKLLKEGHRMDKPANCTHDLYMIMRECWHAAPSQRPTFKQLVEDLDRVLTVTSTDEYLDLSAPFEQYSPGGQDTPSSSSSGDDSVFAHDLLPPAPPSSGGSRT

Fyn = Fyn (UniProt P06241); assay: as above
Sequence of Fyn (P06241 whole entry, looked up): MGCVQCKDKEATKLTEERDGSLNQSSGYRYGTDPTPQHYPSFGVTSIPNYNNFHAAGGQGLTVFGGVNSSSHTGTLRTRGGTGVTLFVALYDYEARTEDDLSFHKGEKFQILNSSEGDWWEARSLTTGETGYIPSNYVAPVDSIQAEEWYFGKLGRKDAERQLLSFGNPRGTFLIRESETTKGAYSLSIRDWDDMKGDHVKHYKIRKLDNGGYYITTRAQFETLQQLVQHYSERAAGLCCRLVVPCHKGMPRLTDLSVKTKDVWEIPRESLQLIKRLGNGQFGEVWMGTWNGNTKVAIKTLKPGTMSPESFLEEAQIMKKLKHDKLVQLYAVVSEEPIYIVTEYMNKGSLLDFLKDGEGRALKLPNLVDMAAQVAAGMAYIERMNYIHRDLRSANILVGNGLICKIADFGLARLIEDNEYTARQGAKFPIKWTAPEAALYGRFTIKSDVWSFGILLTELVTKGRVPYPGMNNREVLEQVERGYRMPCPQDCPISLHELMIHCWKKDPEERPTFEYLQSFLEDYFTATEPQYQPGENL

AncSZ = assay: as above
MERTK = MERTK (UniProt Q12866); assay: as above
Fes = Fes (UniProt P07332); assay: as above
Sequence of Fes (P07332 whole entry, looked up, the tested form may be a part): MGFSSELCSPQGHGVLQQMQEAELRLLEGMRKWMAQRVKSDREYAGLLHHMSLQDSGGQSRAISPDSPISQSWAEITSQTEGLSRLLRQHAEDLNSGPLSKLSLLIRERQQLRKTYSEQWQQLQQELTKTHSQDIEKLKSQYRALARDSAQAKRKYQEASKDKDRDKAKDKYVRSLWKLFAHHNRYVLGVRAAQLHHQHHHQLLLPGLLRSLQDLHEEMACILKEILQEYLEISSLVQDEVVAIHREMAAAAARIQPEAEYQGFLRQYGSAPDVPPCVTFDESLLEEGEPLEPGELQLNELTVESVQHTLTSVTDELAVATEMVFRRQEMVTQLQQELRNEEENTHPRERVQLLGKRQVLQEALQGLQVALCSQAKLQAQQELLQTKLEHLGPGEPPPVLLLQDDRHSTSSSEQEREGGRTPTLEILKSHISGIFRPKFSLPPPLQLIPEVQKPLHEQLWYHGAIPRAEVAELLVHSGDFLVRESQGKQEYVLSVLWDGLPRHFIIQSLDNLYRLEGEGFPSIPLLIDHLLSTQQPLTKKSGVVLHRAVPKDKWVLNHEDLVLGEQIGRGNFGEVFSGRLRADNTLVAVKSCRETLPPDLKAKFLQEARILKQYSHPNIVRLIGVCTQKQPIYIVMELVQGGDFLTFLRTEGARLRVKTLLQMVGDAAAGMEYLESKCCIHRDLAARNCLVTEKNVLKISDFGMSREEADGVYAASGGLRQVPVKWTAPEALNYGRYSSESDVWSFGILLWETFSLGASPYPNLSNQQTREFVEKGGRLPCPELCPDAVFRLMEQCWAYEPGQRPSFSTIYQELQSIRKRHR
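Wherever SH2 binding enrichment of the phosphorylated peptide, bacterial display is given: peptide library displayed on the E. coli surface as eCPX fusions, selected cells deep-sequenced, score is each peptide's frequency after selection divided by its frequency in the input.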
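Wherever phosphorylation enrichment, bacterial display is given: 11-residue human phosphosite peptides and single-mutation variants displayed on the E. coli surface, counted by deep sequencing, each peptide's frequency after selection divided by its frequency in the unselected input library; frequency after pTyr selection over input frequency; kinase dosed for 20-30% of maximal phosphorylation in three min.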

SH2 binding enrichment (SHP2-C SH2) | SH2 binding enrichment (Grb2 SH2) | SH2 binding enrichment (c-Src SH2) | Sequence | phosphorylation enrichment (Hck) | phosphorylation enrichment (Fer (mouse)) | phosphorylation enrichment (FGFR1) | phosphorylation enrichment (EPHB1) | phosphorylation enrichment (c-Src) | phosphorylation enrichment (Jak2) | phosphorylation enrichment (EPHB2) | phosphorylation enrichment (c-Abl (mouse)) | phosphorylation enrichment (FGFR3) | phosphorylation enrichment (Fyn) | phosphorylation enrichment (AncSZ) | phosphorylation enrichment (MERTK) | phosphorylation enrichment (Fes)
0.656 | 0.805 | 0.457 | AEFGLYGAMVW [VSX2_Y222_R227W_YF] | 2.93 | 2.1 | 0.645 | 0.729 | 2.69 | 1.38 | 1.15 | 0.995 | 0.887 | 3.08 | 1.26 | 1.06 | 1.48
1 | 0.959 | 0.792 | IYHLSYLHNCE [PDE6B_Y227] | 1.75 | 1.28 | 1.95 | 0.778 | 2.56 | 1.26 | 0.764 | 3.41 | 1.74 | 2.63 | 1.46 | 3.92 | 1.54
1.68 | 2.22 | 1.87 | CTTIQYNFMCN [TP53_Y234_H233Q_YF] | 0.611 | 0.485 | 0.586 | 0.499 | 0.5 | 0.853 | 0.49 | 0.593 | 0.689 | 0.494 | 0.969 | 0.438 | 1.01
0.408 | 0.853 | 0.411 | KGEPQYSSHSS [SIPA1L3_Y1265] | 0.295 | 0.45 | 0.298 | 0.327 | 0.496 | 0.57 | 0.317 | 0.498 | 0.421 | 0.554 | 0.515 | 0.429 | 0.547
0.763 | 1.09 | 0.51 | LSPNMYNSKLW [TARSL2_Y457] | 0.831 | 0.5 | 0.75 | 0.632 | 0.573 | 0.561 | 0.753 | 0.726 | 1.13 | 0.622 | 0.879 | 0.603 | 1.19
0.593 | 0.855 | 0.441 | QEIATYRRLPE [KRT16_Y417_L421P] | 0.553 | 0.406 | 0.507 | 0.77 | 0.38 | 0.73 | 0.592 | 0.683 | 0.737 | 0.525 | 0.762 | 0.489 | 0.757
0.699 | 0.909 | 0.542 | NPQKPYFIRLY [WAS_Y83_S82P] | 0.443 | 0.474 | 0.395 | 0.561 | 0.303 | 0.906 | 0.599 | 0.544 | 0.675 | 0.354 | 1.01 | 0.344 | 1.08
0.88 | 0.755 | 0.405 | ADIETYLLEKS [MYH7_Y266] | 0.551 | 0.431 | 0.484 | 0.466 | 0.731 | 0.871 | 0.582 | 0.746 | 0.635 | 0.554 | 1.04 | 0.46 | 1.12
0.881 | 0.904 | 0.501 | DEDYLYREELA [POR_Y575] | 0.642 | 0.61 | 0.814 | 0.71 | 0.535 | 1.25 | 0.647 | 0.903 | 1.18 | 0.579 | 1.61 | 0.502 | 1.36
0.972 | 1.09 | 0.899 | KQFWRYFAGNL [SLC25A4_Y112] | 0.449 | 0.488 | 0.461 | 0.777 | 0.507 | 1.04 | 0.53 | 0.764 | 0.598 | 0.32 | 0.944 | 0.542 | 1.03
0.547 | 0.738 | 0.329 | DLDLTYIFPNI [PTEN_Y27_YF] | 1.76 | 0.56 | 3.31 | 2.03 | 3.89 | 2.57 | 1.15 | 1.17 | 2.77 | 6.27 | 4.58 | 3.52 | 1.34
0.712 | 0.878 | 0.484 | SPLTDYSPQLQ [OTC_Y345_L341P] | 0.417 | 0.421 | 0.522 | 0.414 | 0.496 | 0.691 | 0.517 | 0.661 | 0.489 | 0.403 | 0.749 | 0.479 | 0.67
0.812 | 0.85 | 0.521 | FEDALYTVLHR [UNC13D_Y61_YF] | 9.35 | 11.4 | 2.49 | 16 | 7.03 | 1.4 | 13.8 | 5.92 | 2.38 | 9.12 | 2.96 | 9.68 | 1.79
0.587 | 1.03 | 0.521 | QITQVCGFFDE [PPP2CA_Y127_Y127C_YF] | 0.645 | 0.612 | 0.5 | 0.645 | 0.599 | 1.92 | 0.871 | 1.65 | 1.24 | 0.434 | 1.56 | 0.812 | 1.95

The next lines start with the sequence.

Sequence | SH2 binding enrichment (SHP2-C SH2) | SH2 binding enrichment (Grb2 SH2) | SH2 binding enrichment (c-Src SH2) | phosphorylation enrichment (Hck) | phosphorylation enrichment (Fer (mouse)) | phosphorylation enrichment (FGFR1) | phosphorylation enrichment (EPHB1) | phosphorylation enrichment (c-Src) | phosphorylation enrichment (Jak2) | phosphorylation enrichment (EPHB2) | phosphorylation enrichment (c-Abl (mouse)) | phosphorylation enrichment (FGFR3) | phosphorylation enrichment (Fyn) | phosphorylation enrichment (AncSZ) | phosphorylation enrichment (MERTK) | phosphorylation enrichment (Fes)
RGVTRYIFNRE [HLA-DQB1_Y62_Y58G_YF] | 0.512 | 0.821 | 0.494 | 1.08 | 0.886 | 0.757 | 1 | 1.38 | 1.74 | 0.766 | 1.34 | 1.27 | 0.982 | 2.22 | 1.59 | 1.85
ILILKYPIEHG [ACTA1_Y71_T68I] | 1.72 | 2.07 | 1.58 | 0.488 | 0.694 | 0.525 | 0.612 | 0.491 | 1.11 | 0.479 | 0.818 | 0.807 | 0.39 | 1.07 | 0.424 | 1.29
PAQAAYQKVVA [HBB_Y131_V127A] | 0.884 | 0.9 | 0.87 | 0.542 | 0.477 | 0.544 | 0.562 | 0.375 | 0.59 | 0.67 | 0.589 | 0.62 | 0.879 | 0.647 | 0.349 | 0.771
EEGRVYVYHLS [ITGAE_Y549_R552H] | 0.897 | 0.701 | 0.438 | 0.519 | 0.756 | 0.58 | 0.576 | 0.828 | 0.998 | 0.491 | 0.713 | 0.75 | 0.64 | 1.13 | 0.449 | 1.22
KIVFVYVKKRS [DNAI2_Y7_E2K_YF] | 1.13 | 1.27 | 0.856 | 0.449 | 0.478 | 0.466 | 0.439 | 0.428 | 0.925 | 0.48 | 0.576 | 0.731 | 0.425 | 1.06 | 0.354 | 0.966
GIVEEYQLPFF [BMPR1A_Y453_YF] | 0.629 | 0.799 | 0.438 | 0.604 | 0.587 | 0.812 | 0.599 | 0.746 | 1.34 | 0.724 | 2.24 | 0.822 | 0.591 | 3.31 | 0.588 | 1.35
QKDTFYGLRSL [IGSF10_Y126] | 0.488 | 0.952 | 0.439 | 0.598 | 0.474 | 0.562 | 0.488 | 0.807 | 1 | 0.927 | 0.837 | 0.562 | 0.498 | 0.73 | 0.552 | 1.12
FMYKVYSDPQP [FGFR1_Y280_C277Y] | 0.854 | 0.8 | 0.768 | 0.569 | 0.532 | 0.461 | 0.778 | 0.495 | 0.819 | 0.799 | 0.521 | 0.642 | 0.526 | 1.03 | 0.5 | 1.16
QFNMQYSSSAA [ERBB2IP_Y981_I979M_YF] | 0.527 | 0.694 | 0.643 | 0.47 | 0.492 | 0.558 | 0.592 | 0.346 | 0.581 | 0.529 | 0.449 | 0.674 | 0.388 | 0.937 | 0.492 | 1.18
WYQTKYEELQV [KRT6B_Y360_I365V] | 0.834 | 0.832 | 6.2 | 0.723 | 0.568 | 0.521 | 0.61 | 0.452 | 1.02 | 0.707 | 0.741 | 0.753 | 0.519 | 1.11 | 0.394 | 1.28
SSNLFYRWLTA [CNGA3_Y169_YF] | 0.591 | 0.692 | 0.466 | 0.557 | 0.493 | 0.621 | 0.594 | 0.398 | 0.846 | 0.526 | 0.665 | 0.744 | 0.473 | 1.09 | 0.532 | 0.982
MQMEEYRGWVE [BTNL2_Y91] | 0.392 | 0.946 | 0.391 | 0.464 | 0.449 | 0.488 | 0.503 | 0.553 | 1.25 | 0.711 | 0.545 | 0.599 | 0.409 | 1.22 | 0.423 | 1.07
FSQQTYYPVSN [ABCD1_Y180_R182P] | 0.818 | 0.938 | 0.877 | 5.05 | 0.983 | 9.03 | 4.58 | 4.37 | 7.07 | 3.55 | 0.697 | 6.85 | 2.76 | 0.805 | 7.46 | 0.647
QRVLLYVQRET [GRHL3_Y518_R520Q] | 1.52 | 1.66 | 1.03 | 0.509 | 0.885 | 0.855 | 1.04 | 0.57 | 1.89 | 0.763 | 1.36 | 1.13 | 0.673 | 1.82 | 0.452 | 1.89
VDSGVYAVPPP [BCAR1_Y410] | 0.624 | 0.863 | 0.434 | 8.02 | 5.46 | 1.2 | 7.54 | 4.94 | 0.709 | 19.6 | 20.9 | 1.01 | 8.7 | 2.04 | 9.97 | 0.795
QPSALYEDRYL [ASS1_Y83_S79P] | 0.461 | 0.918 | 0.984 | 3.92 | 6.74 | 0.529 | 1.67 | 0.942 | 1.04 | 1.16 | 0.681 | 0.625 | 0.946 | 0.93 | 0.78 | 1.06
NAGAFYALSTL [FLVCR2_Y325] | 0.837 | 0.979 | 0.592 | 0.752 | 3.19 | 0.61 | 0.822 | 1.23 | 0.751 | 0.784 | 0.608 | 0.649 | 0.567 | 0.784 | 4.76 | 0.764
SRIWVYNHYRC [BRCA2_Y2621_W2626C] | 0.864 | 0.938 | 0.695 | 0.459 | 0.482 | 0.51 | 0.555 | 0.392 | 0.934 | 0.587 | 0.65 | 0.726 | 0.396 | 0.927 | 0.377 | 1.11
PPKFFDTRKLL [CYBB_Y41_Y41D] | 1.17 | 1.54 | 0.92 | 0.51 | 0.941 | 0.365 | 0.383 | 0.614 | 0.663 | 0.556 | 0.759 | 0.38 | 0.518 | 0.992 | 0.796 | 0.639
